Where two headings read alike, the source gives them in different places.
How the values were obtained:
JE VLP [1] = molecular target: T1, JE VLP (Japanese encephalitis virus, UniProt P27395); test: Luminex bead assay (antigen on MagPlex beads, MFI)
T1 construct: virus-like particle; also called Japanese Encephalitis Virus VLP

DENV-4 VLP [2] = molecular target: T2, DENV-4 VLP (Dengue virus serotype 4, strain …, UniProt P09866 114-774); test: Luminex bead assay (antigen on MagPlex beads, MFI)
DENV-4 VLP [3] = molecular target: T2, DENV-4 VLP; test: Luminex, VLP-coupled beads
JE VLP [4] = molecular target: T1, JE VLP; test: Luminex bead assay (antigen on MagPlex beads, MFI); remark: listed apart in the source
DENV-4 VLP [5] = molecular target: T2, DENV-4 VLP
JE VLP [6] = molecular target: T1, JE VLP; test: Luminex bead assay (antigen on MagPlex beads, MFI); remark: listed apart in the source
JE VLP [7] = molecular target: T1, JE VLP; test: Luminex bead assay (antigen on MagPlex beads, MFI); remark: listed apart in the source
DENV-4 VLP [8] = molecular target: T2, DENV-4 VLP; test: Luminex bead assay (antigen on MagPlex beads, MFI); remark: listed apart in the source

T1 sequence (P27395 128-794 limits assumed): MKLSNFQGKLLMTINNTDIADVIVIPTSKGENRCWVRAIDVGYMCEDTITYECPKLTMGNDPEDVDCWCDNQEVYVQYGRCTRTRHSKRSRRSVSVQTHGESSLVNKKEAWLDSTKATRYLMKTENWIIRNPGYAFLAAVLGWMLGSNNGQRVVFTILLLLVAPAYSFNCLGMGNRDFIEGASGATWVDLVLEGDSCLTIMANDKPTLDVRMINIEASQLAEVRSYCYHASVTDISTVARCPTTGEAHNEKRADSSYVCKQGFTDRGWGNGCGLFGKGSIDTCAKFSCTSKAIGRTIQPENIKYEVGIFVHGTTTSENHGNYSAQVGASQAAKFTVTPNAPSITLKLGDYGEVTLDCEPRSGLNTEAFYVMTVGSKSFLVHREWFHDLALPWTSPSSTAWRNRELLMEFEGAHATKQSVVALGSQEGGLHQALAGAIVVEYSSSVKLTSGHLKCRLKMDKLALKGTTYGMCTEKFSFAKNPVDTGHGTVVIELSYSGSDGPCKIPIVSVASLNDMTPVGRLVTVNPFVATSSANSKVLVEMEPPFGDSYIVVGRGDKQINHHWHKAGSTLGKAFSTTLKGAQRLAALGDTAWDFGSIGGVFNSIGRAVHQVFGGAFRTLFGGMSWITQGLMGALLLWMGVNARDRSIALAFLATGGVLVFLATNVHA

| Binder | binding result (JE VLP [1]) | binding result (DENV-4 VLP [2]) | EC50 (DENV-4 VLP [3]) [µg/mL] | binding result (JE VLP [4]) | Response (nm) (DENV-4 VLP [5]) | koff (DENV-4 VLP [5]) [s⁻¹] | binding result (JE VLP [6]) | binding result (JE VLP [7]) | binding result (DENV-4 VLP [8]) |
| --- | --- | --- | --- | --- | --- | --- | --- | --- | --- |
| DENV2-5F4 (antibody, V domains shown) VH: QSVEESGGRLVKPDETLTLTCTVSGIDLSNTVISWVRQAPGKGLEYIGMITPSGSAYSATWAKGRVTISRTSTTVDLKIASPTTEDTATYFCARIAWSTGRNDIWGPGTLVTVSS VL: AAVLTQTPPSVSAAVGGTVTIKCQSSQSVYNNNALSWYQQKPGQPPKLLIYQASKLSSGVSSRFSGSGSGTHFTLTISGVQCDDAATYYCLGIYDDDVDNTFGGGTEVVVG | no binding (tested: 10000 ng/mL) | no binding (tested: 10000 ng/mL) | – | – | – | – | – | – | – |
| DENV2-8D8 (antibody, V domains shown) VH: QSLEESGGRLVKPDETLTLTCTVSGIDLSSTIITWVRQAPGKGLEYIGIIGSSGSIISANWAKGRFTISRTSTTVDLKMTSLTTEDTATYFCARIAWSTGRNDIWGPGTLVTVSS VL: AAVLTQTPPSVSAAVGGTVTISCQSSQSVYNNNALSWYQQKPGQPPKLLIYLASNLASGVPSRFSGSGSGTQFTLTISGVQCDDAATYHCLGVDDDDVDNTFGGGTEVVVK | no binding (tested: 10000 ng/mL) | no binding (tested: 10000 ng/mL) | – | – | – | – | – | – | – |
| DENV4-5B11 (antibody, V domains shown, also called Clone 5B11) VH: QSVEESGGRLVTPGTPLTLTCTVSGFSLSDSAMSWVRQAPGKGLEWIGYIYAGSGTTYYASWAKGRFTISKTSTTVDLKITSPTTEDTATYFCARATAYVGYGYGDDTFDPWGPGTLVTVSS VL: AYDMTQTPASVEVAVGGTVTIKCQASQSISSYLSWYQQKPGQRPKLLIYRASTLASGVSSRFKGSGSGTEFTLTISGVQCDDAATYYCQQGYSNSDVDNVFGGGTEVVVK | – | – | 0.0192 | no binding (tested: 10000 ng/mL) | 2.39 | 2.36e-05 | – | – | – |
| DENV4-7G4 (antibody, V domains shown, also called Clone 7G4) VH: QSVEESGGRLVTPGTPLTLTCTVSGFSLSSCAMTWVRQAPGKGLEWIGYIYVDSDTTYYASWAKGRFTISTTSTTVDLRITSPTTEDTATYFCARTTAYVGGGYGDDTFDPWGPGTLVTVSS VL: DVVMTQTPASVEAAVGGTVTINCQASQNINSYLSWYQQKPGQRPKLLIYRAFTLASGVSSRFKGSGSGTQFTLTISGVECADAATYYCQQGYSFSGVDNVFGGGTEVVVK | – | – | 0.0214 | no binding (tested: 10000 ng/mL) | 2.16 | < 2e-05 | – | – | – |
| DENV4-7D5 (antibody, V domains shown, also called Clone 7D5) VH: QSVEESGGRLVTPGTPLTLTCTVSGIDLSSWEMGWVRQAPGKGLEWIGIIFPSGTIYYANWAKGRFAISKASTTVDLKITSPTTEDTATYFCGRHGGSLYLNIWGPGTLVTVSL VL: AQVLTQTPSPVSAAVGGTVTINCQASQSVYVNRNLAWYQQKPGQPPKVLIYEASKLASGVPSRFKGSGSGTQFTLTISGVQCDDAATYYCQGEFGCSSADCIAFGGGTEVVVK | – | – | 0.0232 | no binding (tested: 10000 ng/mL) | 2.45 | 3.56e-05 | – | – | – |
| DENV4-8C7 (antibody, V domains shown, also called Clone 8C7) VH: QSVEESGGRLVTPGTPLTLTCTVSGIDLSSYEMGWVRQAPGKGLEWIGIIFPSGTIYYANWAKGRFTISKTSTTVDLKITSPTTEDTATYFCGRHGGSLYLNIWGPGTLVTVSL VL: AQVLTQTPSPVSAAVGGTVTINCQASQSVYVNRNLAWYQQKPGQPPKVLIYEASKLASGVPSRFKGSGSGTQFTLTISGVQCDDAATYYCQGEFGCSSADCIAFGGGTEVVVK | – | – | 0.0176 | – | 2.38 | 3.32e-05 | no binding (tested: 10000 ng/mL) | – | – |
| DENV4-9G8 (antibody, V domains shown, also called Clone 9G8) VH: QSLEESGGGLVKPGASLTLTCTASGFSFSYRYWMSWVRQAPGKRPEWIACIDTGNGDTYYASRAKGRFTIMKTSSTTVTLQMTSLTVADTATYFCARSDVTLTGYGYGNLWGPGTLVTVSS VL: DSVMTQTPASVSEPVGGTVTINCQASHNIYNSLAWYQQKPGQPPKLLIYRASTLESGVPSRVKGSGYGTEYTLTISDLECADAATYYCQQYYGGDDDGFGFGGGTEVVVK | – | – | 0.0713 | – | 0.137 | < 2e-05 | no binding (tested: 10000 ng/mL) | – | – |
| DENV2-3H11 (antibody, V domains shown, also called DENV2-3H111) VH: QSVEESGGRLVTPGTPLTLTCTVSGFSLINYDMSWIRQAPGKGLEWIGMVSGGGHTNYASWANGRFTISKTSSTTMDLKITSPTTEDTASYFCGRWDIWGPGTLVTVSL VL: AVVVTQTASPVSAAVGGTVTISCQSSQSVYDDNWLAWYQQKPGQPPKQLIYRASRLASGVPSRFSGTGSGTQFTLTISGVQCDDAATYYCLGGYVDDGDTTFGGGTEVVVK | – | – | – | – | – | – | – | no binding (tested: 10000 ng/mL) | no binding (tested: 10000 ng/mL) |
| DENV4-7F2 (antibody, V domains shown, also called Clone 7F2) VH: QSVEESGGRLVTPGTPLTLTCTVSGIDLSYYAMGWVRQAPGEGLECIGFIDTGDSAYYASWAKGRFTISKTSSTTVDLKITSPTPEDTATYFCGRSLSSYYDWDAFDPWGPGTLVTVSS VL: AYDMTQTPASVEVAVGGTVTINCQASQTIGNLLAWYQQKPGQRPKLLIYRASTLASGVPSRFKGSGSGTQFTLTISGVECADAATYYCQQGASANDIDNSFGGGTAVVVK | – | – | 0.0407 | no binding (tested: 10000 ng/mL) | 2.32 | 3.67e-05 | – | – | – |
| DENV4-10A11 (antibody, V domains shown, also called Clone 10A11; 10A1l) VH: QSVEESGGRLVTPGTPLTLTCTVSGINLSFYAMGWVRQAPGKGLECVGFIDTDNSAYYASWAKGRFTISKTSTTVDLKITSPTTEDTATYFCARSLSSFYDWDAFDPWGPGTLVTVSS VL: AYDMTQTPASVEVAVGGTVTIKCLASQSISNLLAWYQQKPGQRPKLLIYRASTLASGVPSRFKGSGSGTQFTLTISGVECADAATYYCQQGASNSDIDNAFGGGTEVVVK | – | – | 0.0236 | – | 2.17 | 4.17e-05 | no binding (tested: 10000 ng/mL) | – | – |
